Assay results as given in PMC5308003.

These sequences were tested against T1, 6His-OxyR-Like (Magnetospirillum gryphiswaldense MSR-1) (UniProt V6F1S1) (assay: EMSA). Conditions: EMSA: DIG Gel Shift Kit 2nd Gen (Roche) binding buffer with 1 uL poly[d(I-C)], 20 uL, 25 C 30 min, 5% native PAGE in 0.5x TBE; footprinting: 1000 ng labeled ….
T1 sequence: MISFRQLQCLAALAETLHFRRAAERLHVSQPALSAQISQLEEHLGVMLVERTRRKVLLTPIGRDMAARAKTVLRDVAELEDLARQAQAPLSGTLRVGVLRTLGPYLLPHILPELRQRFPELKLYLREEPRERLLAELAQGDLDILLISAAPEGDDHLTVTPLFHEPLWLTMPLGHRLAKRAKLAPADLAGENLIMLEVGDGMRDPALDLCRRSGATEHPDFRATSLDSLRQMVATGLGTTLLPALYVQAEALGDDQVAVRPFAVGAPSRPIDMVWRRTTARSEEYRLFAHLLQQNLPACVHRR

Row | Sequence | binding
1 | CGGCACTTGTTCCATGAACTTCGACCATATCGCTCTCCCATTCAACCAATTGTTAGCCTTGGGCTTGGCGATATTCTAACCGTTCCTCCATTCAACTCATACAGATGTGGTTTAGAAGCTTTTTAATAAATACTTGAGGGTCCGGAAATCATTAGCCGAACCCTCAATAGCCTCAGCTATGCAGGCCGGGGGCTTCATGTCCGGTGCGGGCCACGTATTCGGTGTAGCCGC (double strand) [katG promoter EMSA probe] | no binding
2 | CTTGATCCCGATAATCTGCTGATCGTGGTGGTCGGCAAGCCGGAAGGGGTCAACGGCACGCCCTAACCCGAAAAGACGGCGGCGGCAAAAATCAACGCCGCCCAGTGATCCGTTTCTCCCGTGACACCGTAGAAGGGTCATAAGGAGAAACGCGATGCCTCGGATCATCAAGATTGTTGCCGGCGCTTTGGCCACCTGTCTGGCGGCGACGGCCCCGGCCAAGGCCAGTGGTGCTGTCTTGGACT (double strand) [bsaA promoter EMSA probe] | no binding
3 | CAGGGCAGGATGATGTGAGTGCGTAGACAGATAGGTAAACCAACCTTCCCTTTTAGGCAAGGCGTTTCGCCGTCAAAAATGCTTATATTGCAATGCAATAATGGCAATTAACTGGATAATAGTTATTTATCAAAACCTAACCAGATGGGCGGGCAACGGGTGGTGCGATGCAGCAATCCTTTTGCCTCATCGGGTTAGCGCCTGACAGGGATATTGGGAGCGGGCAAACACTTGAAAACCCACCCGGCGGACAAAATCGCGCCAACCGGTCCATTTCACAATGCACCCATTCAGAGCAAA (double strand) [pdh promoter EMSA probe] | binds
4 | GGGCGAAGAATGGACATCGTCGTCTCCATTAGGCTGTTGTCCGTGATTGAGACTATGCCCCCTTCTTTGTGATAATTCTAATCGATATATCTTGAGATATTGATAGTAAATTGTTATCAGTGATCCATGATCAGCTTTCGCCAATTACAATGCCT (double strand) [oxyR-Like promoter EMSA probe] | binds
5 | TGGGCTGTTGCTTGTCTTATCTTTTTTCATTTCCGCCTCACAGGCTGAATTATCTGAAAAGGAAATAGATGAGGATCAGGACTGGGATGGGAACGCCAACCAGCCAGAGAAGGCCGTATTTCATTTCCTACCTCGCTGTTCTGCCGGTGTGTCATGGGGCAATGGAGCCGTCCTGATACAAGA (double strand) [katE promoter EMSA probe] | no binding
